Where no end group is shown, it is not given here. [ ]: non-standard residue; d: D form. code O = not defined here; Dab = NCC[C@H](N)C(=O)O
T1: B-Raf kinase, P15056
T1 chain: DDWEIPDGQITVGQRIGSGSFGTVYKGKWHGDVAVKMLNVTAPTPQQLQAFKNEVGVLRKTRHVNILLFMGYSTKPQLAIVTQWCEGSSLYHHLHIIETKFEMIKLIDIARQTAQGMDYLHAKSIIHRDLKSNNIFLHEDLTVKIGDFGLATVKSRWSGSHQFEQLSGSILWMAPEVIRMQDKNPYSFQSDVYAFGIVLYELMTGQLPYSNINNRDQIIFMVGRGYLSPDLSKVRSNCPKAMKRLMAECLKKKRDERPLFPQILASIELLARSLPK


Molecular target: T1, B-Raf kinase, P15056
Assay: Kd for the B-Raf dimer interface (FIG. 1), fluorescence titration

Row | Binder | Kd [nM]
1 | GVLRKTRHVNILLFMGYST (modifications not checked) [SEQ ID NO: 1 (B-Raf residues 503-521, …)] | 3840
2 | GVLLKTRHVNILLFMGYST (modifications not checked) [SEQ ID NO: 6] | 540

Molecular target: T1, B-Raf kinase, P15056
Assay: intrinsic fluorescence titration (ITF) of B-Raf in solution

Row | Binder | Kd [nM]
3 | GVLRKTRHVNIALFMGYST (modifications not checked) [SEQ ID NO: 11 (503-521 L514A, …)] | 9800
4 | GVLRKTRHANILLFMGYST (modifications not checked) [SEQ ID NO: 10 (503-521 V511A, …)] | 4750
5 | GRINKGRHTFLLVVMTYSL (modifications not checked) [SEQ ID NO: 3 (scrambled, …)] | 2960
6 | LRKKRHVNELLFMG (modifications not checked) [SEQ ID NO: 37 (cyclo 508-513 T508K, I513E, …)] | 1890
7 | VLRKTRAVNILLFMG (modifications not checked) [SEQ ID NO: 25 (504-518 H510A, …)] | 2700
8 | VLRKTRHVNIALFMG (modifications not checked) [SEQ ID NO: 28 (504-518 L514A, …)] | 1020
9 | VLRKTAHVNILLFMG (modifications not checked) [SEQ ID NO: 24 (504-518 R509A, …)] | 2400
10 | VLAKTRHVNILLFMG (modifications not checked) [SEQ ID NO: 22 (504-518 R506A, …)] | 360
11 | VLRKTRHVNILLFAG (modifications not checked) [SEQ ID NO: 30 (504-518 M517A, …)] | 540
12 | VARKTRHVNILLFMG (modifications not checked) [SEQ ID NO: 21 (504-518 L505A, …)] | 450
13 | GVLRKTRHVNILIFMGYST (modifications not checked) [SEQ ID NO: 12 (503-521 L515I, …)] | 4100
14 | VLRKTRHVNILLAMG (modifications not checked) [SEQ ID NO: 29 (504-518 F516A, …)] | 570
15 | LLKTRHVNILLFMG (modifications not checked) [SEQ ID NO: 32 (505-518 R506L, …)] | 550

Results, then the binder that gave them:

Row | Kd [nM] | Binder
16 | 2200 | GVLRKDRHVNILLFMGYST (modifications not checked) [SEQ ID NO: 7 (503-521 T508D, …)]
17 | 3890 | GVARKTRHVNILLFMGYST (modifications not checked) [SEQ ID NO: 4 (503-521 L505A, …)]
18 | 1880 | GVLRKTRHVNILLFMG (modifications not checked) [SEQ ID NO: 15 (503-518, …)]
19 | 190 | LRKTRHVNILLFMG (modifications not checked) [SEQ ID NO: 31 (…)]
20 | 1090 | GVLEKTRHVNILLFMGYST (modifications not checked) [SEQ ID NO: 5 (503-521 R506E, …)]
21 | 2690 | VLRKTRHVNALLFMG (modifications not checked) [SEQ ID NO: 27 (504-518 I513A, …)]

Molecular target: T1, B-Raf kinase, P15056
Assay: ITC

Row | Binder | ΔH [kcal/mol]
22 | GVLRKARHVNILLFMGYST (modifications not checked) [SEQ ID NO: 8] | -8.32

Molecular target: T1, B-Raf kinase, P15056
Assay: intrinsic tryptophan fluorescence (ITF), column head 'Kd (ITF) (µM)'

Row | Binder | Kd [nM]
23 | TRHVNILLFMG (modifications not checked) [SEQ ID NO: 45 (…) with N-Cap N2] | 84
24 | TRHVNILLFMG (modifications not checked) [SEQ ID NO: 45 (…) with N-Cap N1] | 50

Molecular target: T1, B-Raf kinase, P15056
Assay: binding affinity with BRAF, Table 2 (method not given; the Methods describe fluorescence titration)

Row | Binder | Kd [nM]
25 | VLRKKRHVNELLFMG (modifications not checked) [SEQ ID NO: 53 (…)] | 1890
26 | VCRKTRHVNILLCM (modifications not checked) [SEQ ID NO: 33 (…)] | 360
27 | VLRKTRHVNILLFM (modifications not checked) [SEQ ID NO: 16 (…)] | 5750
28 | V[Dab]RKKRHVNELLDMG [SEQ ID NO: 54 (VDab…)] | 370

Molecular target: T1, B-Raf kinase, P15056
Assay: binding affinity, Table 3 (method not given; the Methods describe fluorescence titration)

Row | Binder | Kd [nM]
29 | VLRK[code O]RHVAELIFMG (reading uncertain) [SEQ ID NO: 58 (VLRKO…)] | 170
30 | VLRKKRHVNELLFMG (modifications not checked) [SEQ ID NO: 53 (…)] | 1890
31 | LRKTRHVNILLFMG (modifications not checked) [SEQ ID NO: 31 (…)] | 1880
32 | KRHVAELLFMG (modifications not checked) [SEQ ID NO: 47 (…)] | 590
33 | VLRKKRHVAELLFMG (modifications not checked) [SEQ ID NO: 60 (VLRKKMe…)] | 39
34 | KRHPAELLFMG (modifications not checked) [SEQ ID NO: 61 (…)] | 160
